How the values were obtained:
[1] = substrate: Nc1ncnc2c1ncn2[C@@H]1O[C@H](CO)[C@@H](O)[C@H]1O; test: stopped-flow absorbance Michaelis-Menten kinetics; format: biochemical, Bos taurus
[2] = substrate: Nc1ncnc2c([C@@H]3O[C@H](CO)[C@@H](O)[C@H]3O)snc12; test: stopped-flow fluorescence Michaelis-Menten kinetics; format: biochemical, Bos taurus

B1: adenosine deaminase (ADA) (Bos taurus) (protein)
chain: AQTPAFNKPKVELHVHLDGAIKPETILYYGRKRGIALPADTPEELQNIIGMDKPLSLPEFLAKFDYYMPAIAGCREAVKRIAYEFVEMKAKDGVVYVEVRYSPHLLANSKVEPIPWNQAEGDLTPDEVVSLVNQGLQEGERDFGVKVRSILCCMRHQPSWSSEVVELCKKYREQTVVAIDLAGDETIEGSSLFPGHVKAYAEAVKSGVHRTVHAGEVGSANVVKEAVDTLKTERLGHGYHTLEDATLYNRLRQENMHFEVCPWSSYLTGAWKPDTEHPVVRFKNDQVNYSLNTDDPLIFKSTLDTDYQMTKNEMGFTEEEFKRLNINAAKSSFLPEDEKKELLDLLYKAYGMPSPASAEQCL
**Q.** B1 was tested. Which Km [1] did it give?
**A.** 25.1 ± 3.2 µM

**Q.** What about the Km [2] of the same protein?
**A.** 18.8 ± 3.2 µM
